Like-named read-outs stand apart in the source and are kept apart here. Values belong to the binder of their own block, whether it stands above or below them.
Columns and labels:
mouse CEACAM5 = target: T1, mouse CEACAM5 (mouse, UniProt Q3UKK2 35-947, limits assumed); assay: ELISA on coated protein, OD450
T1 sequence (looked up): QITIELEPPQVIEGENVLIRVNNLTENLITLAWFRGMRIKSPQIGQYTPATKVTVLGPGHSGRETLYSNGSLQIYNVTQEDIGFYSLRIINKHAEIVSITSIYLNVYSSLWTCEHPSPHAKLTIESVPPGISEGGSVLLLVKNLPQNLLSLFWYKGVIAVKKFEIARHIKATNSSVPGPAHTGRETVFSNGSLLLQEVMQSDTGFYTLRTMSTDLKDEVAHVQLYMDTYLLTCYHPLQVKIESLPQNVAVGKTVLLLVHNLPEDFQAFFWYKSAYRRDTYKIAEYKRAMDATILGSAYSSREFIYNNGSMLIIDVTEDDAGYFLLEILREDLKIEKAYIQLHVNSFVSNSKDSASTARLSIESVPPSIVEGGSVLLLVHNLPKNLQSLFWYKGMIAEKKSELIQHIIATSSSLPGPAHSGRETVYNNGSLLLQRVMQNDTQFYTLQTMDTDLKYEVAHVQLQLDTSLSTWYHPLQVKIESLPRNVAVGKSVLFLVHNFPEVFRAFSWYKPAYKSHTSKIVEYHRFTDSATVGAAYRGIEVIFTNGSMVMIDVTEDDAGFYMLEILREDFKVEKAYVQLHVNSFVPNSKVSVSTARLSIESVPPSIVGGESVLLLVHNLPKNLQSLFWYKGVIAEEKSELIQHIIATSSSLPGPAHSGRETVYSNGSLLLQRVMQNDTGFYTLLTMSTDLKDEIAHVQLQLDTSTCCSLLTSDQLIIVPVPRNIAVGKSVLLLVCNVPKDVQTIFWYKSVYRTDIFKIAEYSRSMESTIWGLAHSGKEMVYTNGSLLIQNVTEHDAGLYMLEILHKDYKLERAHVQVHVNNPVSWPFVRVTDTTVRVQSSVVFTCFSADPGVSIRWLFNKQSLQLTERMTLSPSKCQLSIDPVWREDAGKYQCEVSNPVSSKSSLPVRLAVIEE
In short: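 Plates coated overnight at 4 °C with mouse CEACAM5 protein, blocked with 2% BSA in PBS, then incubated with test antibody 1 h at 37 °C. Binding detected with HRP-conjugated goat anti-mouse IgG-Fc and TMB, absorbance read at 450 nm.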

[1] = target: T2, human CEACAM5-his (ACRO CE5-H5226) (human, UniProt P06731 35-685); assay: ELISA on coated human CEACAM5, OD450
T2 construct: Bought protein; not shown: His tag
T2 sequence (looked up): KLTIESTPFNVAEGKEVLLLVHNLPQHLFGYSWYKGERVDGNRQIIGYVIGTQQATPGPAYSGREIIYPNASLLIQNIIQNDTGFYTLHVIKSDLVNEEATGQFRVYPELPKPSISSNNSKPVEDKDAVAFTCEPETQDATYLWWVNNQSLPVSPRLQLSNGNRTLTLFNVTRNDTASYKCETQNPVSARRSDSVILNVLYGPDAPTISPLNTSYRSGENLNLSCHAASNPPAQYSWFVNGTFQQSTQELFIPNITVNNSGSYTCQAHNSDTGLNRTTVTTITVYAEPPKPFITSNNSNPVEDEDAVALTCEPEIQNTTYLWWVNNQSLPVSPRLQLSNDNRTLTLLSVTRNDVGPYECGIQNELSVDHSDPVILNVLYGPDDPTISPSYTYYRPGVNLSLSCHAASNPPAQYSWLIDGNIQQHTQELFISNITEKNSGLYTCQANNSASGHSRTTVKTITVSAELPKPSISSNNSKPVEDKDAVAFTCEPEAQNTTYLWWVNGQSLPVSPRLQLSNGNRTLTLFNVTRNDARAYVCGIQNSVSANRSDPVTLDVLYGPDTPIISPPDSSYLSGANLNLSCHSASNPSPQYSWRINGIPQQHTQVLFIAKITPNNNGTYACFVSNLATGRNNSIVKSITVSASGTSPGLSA
Protocol: (§1) The binding activity of the antibodies to human CEACAM5, human CEACAM6, and human CEACAM6 (AB) proteins was detected by ELISA. The plate coated with proteins was incubated at 4° C. overnight, and the 96-well ELISA plate blocked with 2% PBS-BSA was added with the antibody to be detected and incubated at 37° C. for 1 h. After washing 3 times with PBS containing 0.05% Tween, the absorbance value of each well was read at wavelength 450 nm with the gradient-diluted mouse-derived candidate antibody as the primary antibody and anti-mouse-IgG-FC-HRP as the secondary antibody, and the absorbance value of each well was read at wavelength 450 nm after the TMB color development.

[2] = target: T3, human CEACAM6-his (ACRO CE6-H5223) (human, UniProt P40199 35-320); assay: ELISA on coated human CEACAM6, OD450
T3 construct: Bought protein; not shown: His tag
T3 sequence (looked up): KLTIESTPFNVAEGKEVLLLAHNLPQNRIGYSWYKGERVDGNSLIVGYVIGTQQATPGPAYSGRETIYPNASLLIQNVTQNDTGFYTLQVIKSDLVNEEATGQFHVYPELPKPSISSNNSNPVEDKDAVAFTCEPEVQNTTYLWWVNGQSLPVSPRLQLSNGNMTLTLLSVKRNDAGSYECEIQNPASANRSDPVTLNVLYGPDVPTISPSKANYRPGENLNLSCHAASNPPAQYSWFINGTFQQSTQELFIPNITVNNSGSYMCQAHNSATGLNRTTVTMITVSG
Protocol: as §1

[3] = target: T4, CEACAM6 on the surface of the tumor cells (HPAFII cells) (UniProt P40199 35-320); assay: flow cytometry on HPAFII cells (Mean-FITC); the cells carry CEACAM5 and CEACAM6, signal not divided between the two
T4 construct: whole, on cells
T4 sequence (looked up): T3 sequence (looked up)
Protocol: (§2) The antibody to be tested was taken as the initial concentration of 200 nM and diluted 5-fold with 6 gradients. The HPAFII cells (From USTC […] FOR ADVANCED STUDIES) in the incubator were taken out, and the cell suspension was transferred to a 15 mL centrifuge tube, centrifuged, and counted by resuspension in PBS. A blank control group (Blank), a negative control group (NC), an experimental group, a positive control group and the irrelevant antibody group were kept. […] The cell suspension was spread in a 96-well plate according to about 3×10⁵ cells/well. Centrifugation (1000 rpm, 5 min) was performed, followed by washing with PBS, re-centrifugation, and repeated twice to remove media residues. The supernatant was discarded, 100 μL of primary antibody solution and irrelevant antibody solution were added to the experimental group and irrelevant antibody group, respectively, and the cells were resuspended and incubated at room temperature for 1 h. The blank group, and the negative control group were incubated with an equal amount of PBS.
(§3) After 1 h, PBS was added to wash twice. After the supernatant was discarded, 100 μL of fluorescent secondary antibody dilution (Mouse-derived secondary antibody from Abcam ab6785) was added to each sample group, except for the blank group which was added with 100 μL of PBS. After incubation at room temperature and protected from light for 0.5 h, centrifugation was performed and PBS added to wash the samples twice. After the supernatant was discarded, 120 μL of PBS was added to resuspend and sequentially flow cytometry was performed to detect the mean fluorescence intensity. The concentration of the antibody was logarithmically taken as the horizontal coordinate, and the Sigmoidaldose-response (VariableSlope) method (GraphPadPrism Software, GraphPadSoftware, San Diego, California) was chosen to perform a nonlinear regression to obtain the binding activity curves of the antibody on HPAFII cells.

[4] = target: T2, human CEACAM5-his (ACRO CE5-H5226); assay: ELISA on coated human CEACAM5, OD450; remark: listed apart in the source
In short: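 Plates coated overnight at 4 °C with antigen and blocked with 2% BSA in PBS received gradient-diluted mouse candidate antibodies for 1 h at 37 °C. Binding was detected with anti-mouse IgG Fc-HRP and TMB, read as OD450.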

[5] = target: T5, CEACAM5 on the surface of the tumor cells (HPAFII cells) (UniProt P06731 35-685); assay: flow cytometry on HPAFII cells (Mean-FITC); the cells carry CEACAM5 and CEACAM6, signal not divided between the two
T5 construct: whole, on cells
T5 sequence (looked up): T2 sequence (looked up)
Protocol: as §2, §3

[6] = target: T5, CEACAM5 on the surface of the tumor …; assay: as above; remark: listed apart in the source
Protocol: as §2
After 1 h, PBS was added to wash twice. […] After the supernatant was discarded, 120 μL of PBS was added to resuspend and sequentially flow cytometry was performed to detect the mean fluorescence intensity. […]

[7] = target: T2, human CEACAM5-his (ACRO CE5-H5226); assay: SPR (Biacore), antibody captured on CM5 chip, antigen as analyte, 1:1 model
Protocol: The CM5 sensor chip was activated at a flow rate of 10 μL/min for 420 seconds. The channel was then injected with 30 μg/mL of anti-rat Fc IgG in 10 mM NaAc (pH 4.5) at a flow rate of 10 μL/min. The chip was inactivated with 1 M ethanolamine-hydrochloric acid (GE) for 420 seconds at a flow rate of 10 μL/min.
Candidate antibodies in running buffer 1×HBS-EP+ (10 mM HEPES, 150 mM NaCl, 3 mM EDTA, 0.05% Tween 20, pH 7.4) were captured onto Fc2 with anti-rat Fc IgG at a flow rate of 10 μL/min. The 10 nM human CEACAM5-his protein or CEACAM-6-his or CEACAM6 (AB)-his protein and running buffer were sequentially injected into Fc1-Fc2 at a flow rate of […], bound for 180 seconds, and then dissociated for 3600 seconds. 10 mM glycine (pH 1.5) was injected as regeneration buffer after each dissociation.
Result plots for the reference channel Fc1 and the buffer channel were subtracted from the test result plots. The experimental data fit the 1:1 binding model. The molecular weight of 110 KDa was used to calculate the molar concentration of CEACAM5 protein, 55 KDa for human CEACAM6-his, and 55 KDa for human CEACAM6 (AB)-his.

[8] = target: T5, CEACAM5 on the surface of the tumor …; assay: flow cytometry on HPAFII cells (Mean-FITC); the cells carry CEACAM5 and CEACAM6, signal not divided between the two; remark: listed apart in the source
Protocol: as §2, §3

[9] = target: T5, CEACAM5 on the surface of the tumor …; assay: as above; remark: listed apart in the source
Protocol: as §2, §3

OD (mouse CEACAM5): 0.16 OD | EC50 (read off the curve) [1]: ~0.04 µg/mL | binding result [2]: binds | binding result [3]: binds
B1: Antibody 1 (antibody, V domains shown)
VH: QVQLKQSGAELVRPGASVKLSCKTSGYIFTSYWIHWVKQRSGQGLEWIARIYPGTGSTYYNEKFKGKATLTADKSSSTAYMQLSSLKSEDSAVYFCARSGFPLTTVPLDYWGQGTTLTVSS
VL: DVQITQSPSYLAASPGETITINCRASKSISKYLAWYQEKPGKTNKLLIYSGSTLQSGIPSRFSGSGSGTDFTLTISSLEPEDFAMYYCQQHNEYPFTFGSGTKLEIK
notes: Mouse-derived hybridoma antibody; also called mouse-derived antibody 1

EC50 (read off the curve) [1]: ~0.004 µg/mL | EC50 (read off the curve) [4]: ~0.004 µg/mL | EC50 (read off the curve) [5]: ~2 nM | EC50 (read off the curve) [6]: ~0.6 µg/mL | Kd [7]: 5.05 nM | EC50 (read off the curve) [8]: ~3 nM | EC50 (read off the curve) [9]: ~3 nM
B2: NEO-201 antibody (msIgG2a subtype) (antibody, V domains shown)
VH: QVQLVQSGAEVKKPGASVKVSCKASGYTFTDYAMHWVRQAPGQRLEWMGLISTYSGDTKYNQNFQGRVTMTVDKSASTAYMELSSLRSEDTAVYYCARGDYSGSRYWFAYWGQGTLVTVSS
VL: DIQMTQSPSSLSASVGDRVTITCQASENIYGALNWYQRKPGKSPKLLIYGASNLATGMPSRFSGSGSGTDYTFTISSLQPEDIATYYCQQVLSSPYTFGGGTKLEIKR
